Here are results for 2 proteins from PMC6172425, “Structural basis of inactivation of human counterpart of mouse motor neuron degeneration 2 mutant in serine protease HtrA2” (Bioscience Reports, 2018).

The series concerns the molecule itself. Nature of the series: SEC; Superdex S200 HR 10/300, 10 mM HEPES pH 8.0, 100 mM NaCl, protein ~20 mg/ml, 0.2 ml/min; calibrated with BSA, alcohol dehydrogenase, β-amylase. On the technique in general: Size exclusion chromatography separates by hydrodynamic size, large species first.

Residue numbers refer to the chain shown, from its start. Names and notes keep the numbering of the source.

B1: Recombinant mature (Δ133) human HtrA2 S276C (enzyme, UniProt O43464 134-458, looked up)
chain: AVPSPPPASPRSQYNFIADVVEKTAPAVVYIEILDRHPFLGREVPISNGSGFVVAADGLIVTNAHVVADRRRVRVRLLSGDTYEAVVTAVDPVADIATLRIQTKEPLPTLPLGRSADVRQGEFVVAMGSPFALQNTITSGIVCSAQRPARDLGLPQTNVEYIQTDAAIDFGNSGGPLVNLDGEVIGVNTMKVTAGISFAIPSDRLREFLHRGEKKNSSSGISGSQRRYIGVMMLTLSPSILAELQLREPSFPDVQHGVLIHKVILGSPAHRAGLRPGDVILAIGEQMVQNAEDVYEAVRTQSQLAVQIRRGRETLTLYVTPEVTE
notes: human serine protease HtrA2, mature processed form (Δ133): the 458 amino acid precursor without its first 133 residues, with S276C; Made by site-directed mutagenesis of the wild-type construct in pET-20b; also called hHtrA2S276C; human counterpart of the mouse mnd2 mutant; source: E. coli Rosetta (DE3), purified (Ni-NTA, gel filtration)
For the protein B1, the binding result is “binds”.

B2: Recombinant mature (Δ133) human HtrA2, wild type (enzyme, UniProt O43464 134-458, looked up)
chain: B1 chain with C143S
notes: human serine protease HtrA2, mature processed form (Δ133): the 458 amino acid precursor without its first 133 residues, N-terminus AVPS; In pET-20b; PDB 1LCY is the S306A form of the mature protein; also called wt hHtrA2; hHtrA2; source: E. coli Rosetta (DE3), purified (Ni-NTA)
With B2, the binding result is “binds”.
